In FireProtDB (doi:10.1021/bi972994k):

Details: Saccharolobus solfataricus (strain ATCC 35092 / DSM 1617 / JCM 11322 / P2), Thermal, DSC, glycine-HCl 10 mM, NaCl 100 mM, reversible: yes, whole UniProt chain shown

B1: DNA-binding protein 7d wild type, P39476 (protein)
chain: MATVKFKYKGEEKEVDISKIKKVWRVGKMISFTYDEGGGKTGRGAVSEKDAPKELLQMLEKQKK
pH 2.3
  Tm: 64 °C
  heat capacity change of unfolding: 0.48 kcal/mol/K
  unfolding enthalpy (calorimetric): 40.6 kcal/mol
pH 2.5
  Tm: 65.5 °C
  heat capacity change of unfolding: 0.57 kcal/mol/K
  unfolding enthalpy (calorimetric): 43 kcal/mol
pH 2.7
  Tm: 71.1 °C
  heat capacity change of unfolding: 0.57 kcal/mol/K
  unfolding enthalpy (calorimetric): 46.6 kcal/mol
pH 2.8
  Tm: 74 °C
  heat capacity change of unfolding: 0.45 kcal/mol/K
  unfolding enthalpy (calorimetric): 49 kcal/mol
pH 2.9
  Tm: 76.3 °C
  heat capacity change of unfolding: 0.65 kcal/mol/K
  unfolding enthalpy (calorimetric): 50.2 kcal/mol
pH 3
  Tm: 78.8 °C
  heat capacity change of unfolding: 0.74 kcal/mol/K
  unfolding enthalpy (calorimetric): 51.4 kcal/mol
pH 3.2
  Tm: 84.2 °C
  heat capacity change of unfolding: 0.72 kcal/mol/K
  unfolding enthalpy (calorimetric): 55 kcal/mol
pH 3.6
  Tm: 90.3 °C
  heat capacity change of unfolding: 0.6 kcal/mol/K
  unfolding enthalpy (calorimetric): 58.6 kcal/mol
pH 3.8
  Tm: 92.4 °C
  heat capacity change of unfolding: 0.69 kcal/mol/K
  unfolding enthalpy (calorimetric): 59.8 kcal/mol
pH 4
  Tm: 95.1 °C
  heat capacity change of unfolding: 0.55 kcal/mol/K
  unfolding enthalpy (calorimetric): 63.3 kcal/mol
